Patent US20240034813A1 (Janssen / Centocor, published 2024)

How the values were obtained:
[1] = target: T1, recombinant cMet/HGFR with c-terminal His-tag, Cy5-labeled (UniProt P08581 25-932, limits assumed, Cy5 label (reacted with Cy5 Mono NHS Ester; sites not stated)); assay: competitive TR-FRET (Eu-amivantamab/Cy5-c-MET), EC50 ratio vs Reference Material; Ex. 2 Formulation 3 (acetate), 3 months at 25 C
T1 construct: Commercial protein; also called Cy5-c-MET; Cy5-labeled c-MET antigen; not shown: C-terminal His-tag
Excerpt: (§1) In this procedure, varying concentrations of unlabeled bispecific EGFR-cMet antibody sample compete with donor fluorophore (Europium (Eu) chelate) labeled bispecific EGFR-cMet antibody for binding to an acceptor fluorophore (Cy5)-labeled c-MET antigen. Excitation of the donor fluorophore results in a transfer of energy to the bound acceptor fluorophore (FRET process). The resultant FRET is detected by emission of light at 665 nm using a microplate reader capable of measuring time-resolved fluorescence. Sample dose response curves are compared to the Reference Material (RM).
(§2) c-MET Binding Materials and Methods. Certified commercial cMet, a recombinant cMet/HGFR with c-terminal His-tag is reacted with certified commercial Cy5 Mono NHS Ester to produce Cy5-labeled c-MET. Validated bispecific EGFR-cMet antibody is reacted with certified commercial Europium (Eu) chelate to produce Eu labeled bispecific EGFR-cMet antibody. […] Fluorescence is then measured by spectrophotometry at 665 nm, plotted against antibody concentration and analyzed by a four-parameter logistic model. The antibody concentration required to obtain half of the maximum fluorescence response (EC50) is determined for RM, assay control and samples. The potencies of assay control and samples are calculated based on the ratio of the sample (or control) and RM EC50 values and reported as a percentage activity relative to the RM.

[2] = target: T1, recombinant cMet/HGFR with c-terminal …; assay: competitive TR-FRET (Eu-amivantamab/Cy5-c-MET), EC50 ratio vs Reference Material; Ex. 12 drug product with rHuPH20, 0 months, 5 C table
Excerpt: as §1, §2

[3] = target: T2, recombinant human EGFR/ErbB1/HER1 with C-terminal His tag, Cy5-labeled (human, UniProt P00533 25-645, Cy5 label (reacted with Cy5 Mono NHS Ester; sites not stated)); assay: competitive TR-FRET (Eu-amivantamab/Cy5-EGFR), EC50 ratio vs Reference Material; Ex. 2 Formulation 1 (10 mM histidine), 3 months at 25 C
T2 construct: Commercial protein; also called Cy5-EGFR; Cy5-labeled EGFR antigen; not shown: C-terminal His tag
Excerpt: as §1, with “EGFR” for “c-MET”, “RM.” for “Reference Material (RM).”
as §2, with “EGFR” for “c-MET”, “EGFR,” for “cMet,”, “human EGFR/ErbB1/HER1” for “cMet/HGFR”, “C-terminal His tag” for “c-terminal His-tag”, “EGFR.” for “c-MET.”, “Eu-labeled” for “Eu labeled”

[4] = target: T2, recombinant human EGFR/ErbB1/HER1 with …; assay: competitive TR-FRET (Eu-amivantamab/Cy5-EGFR), EC50 ratio vs Reference Material; Ex. 3 acetate formulation, 6 months at 25 C, untreated control
Excerpt: as §1, with “EGFR” for “c-MET”, “RM.” for “Reference Material (RM).”
as §2, with “EGFR” for “c-MET”, “EGFR,” for “cMet,”, “human EGFR/ErbB1/HER1” for “cMet/HGFR”, “C-terminal His tag” for “c-terminal His-tag”, “EGFR.” for “c-MET.”, “Eu-labeled” for “Eu labeled”

[5] = target: T2, recombinant human EGFR/ErbB1/HER1 with …; assay: competitive TR-FRET (Eu-amivantamab/Cy5-EGFR), EC50 ratio vs Reference Material; Ex. 11 drug product, 6 months at 25 C
Excerpt: as §1, with “EGFR” for “c-MET”, “RM.” for “Reference Material (RM).”
as §2, with “EGFR” for “c-MET”, “EGFR,” for “cMet,”, “human EGFR/ErbB1/HER1” for “cMet/HGFR”, “C-terminal His tag” for “c-terminal His-tag”, “EGFR.” for “c-MET.”, “Eu-labeled” for “Eu labeled”

[6] = target: T1, recombinant cMet/HGFR with c-terminal …; assay: competitive TR-FRET (Eu-amivantamab/Cy5-c-MET), EC50 ratio vs Reference Material; Ex. 12 drug product with rHuPH20, 9 months at 5 C
Excerpt: as §1, §2

[7] = target: T1, recombinant cMet/HGFR with c-terminal …; assay: competitive TR-FRET (Eu-amivantamab/Cy5-c-MET), EC50 ratio vs Reference Material; Ex. 12 drug product with rHuPH20, 6 months at 5 C
Excerpt: as §1, §2

[8] = target: T2, recombinant human EGFR/ErbB1/HER1 with …; assay: competitive TR-FRET (Eu-amivantamab/Cy5-EGFR), EC50 ratio vs Reference Material; Ex. 11 drug product, 12 months at 5 C
Excerpt: as §1, with “EGFR” for “c-MET”, “RM.” for “Reference Material (RM).”
as §2, with “EGFR” for “c-MET”, “EGFR,” for “cMet,”, “human EGFR/ErbB1/HER1” for “cMet/HGFR”, “C-terminal His tag” for “c-terminal His-tag”, “EGFR.” for “c-MET.”, “Eu-labeled” for “Eu labeled”

B1: amivantamab (bispecific antibody, human IgG1, kappa)
heavy 1: not shown
light 1: not shown
heavy 2: not shown
light 2: DIQMTQSPSSVSASVGDRVTITCRASQGISNWLAWFQHKPGKAPKLLIYAASSLLSGVPSRFSGSGSGTDFTLTISSLQPEDFATYYCQQANSFPITFGQGTRLEIKRTVAAPSVFIFPPSDEQLKSGTASVVCLLNNFYPREAKVQWKVDNALQSGNSQESVTEQDSKDSTYSLSSTLTLSKADYEKHKVYACEVTHQGLSSPVTKSFNRGEC
notes: The samples tested were high concentration (160 mg/mL) formulations, fresh or stored or stressed; also called JNJ-61186372; bispecific EGFR-cMet antibody
- cMET Binding % activity relative to RM [1]: 105%
- cMET Binding activity relative to Reference Material (%) [2]: 91%
- EGFR Binding % activity relative to RM [3]: 100%
- EGFR Binding % activity relative to RM [4]: 83%
- EGFR Binding activity relative to Reference Material (%) [5]: 57%
- cMET Binding activity relative to Reference Material (%) [6]: 106%
- cMET Binding activity relative to Reference Material (%) [7]: 102%
- EGFR Binding activity relative to Reference Material (%) [8]: 86%
